Measurements from publication PMC5879659 (Proceedings of the National Academy of Sciences of the …, 2018).
Square brackets hold non-standard residues; d marks the D form. Ends that are not written are not given here. Hyp = O=C(O)[C@@H]1C[C@@H](O)CN1

Molecular target: T1, HAESA LRR ectodomain (Arabidopsis thaliana, UniProt P47735 15-621)
T1 sequence (looked up): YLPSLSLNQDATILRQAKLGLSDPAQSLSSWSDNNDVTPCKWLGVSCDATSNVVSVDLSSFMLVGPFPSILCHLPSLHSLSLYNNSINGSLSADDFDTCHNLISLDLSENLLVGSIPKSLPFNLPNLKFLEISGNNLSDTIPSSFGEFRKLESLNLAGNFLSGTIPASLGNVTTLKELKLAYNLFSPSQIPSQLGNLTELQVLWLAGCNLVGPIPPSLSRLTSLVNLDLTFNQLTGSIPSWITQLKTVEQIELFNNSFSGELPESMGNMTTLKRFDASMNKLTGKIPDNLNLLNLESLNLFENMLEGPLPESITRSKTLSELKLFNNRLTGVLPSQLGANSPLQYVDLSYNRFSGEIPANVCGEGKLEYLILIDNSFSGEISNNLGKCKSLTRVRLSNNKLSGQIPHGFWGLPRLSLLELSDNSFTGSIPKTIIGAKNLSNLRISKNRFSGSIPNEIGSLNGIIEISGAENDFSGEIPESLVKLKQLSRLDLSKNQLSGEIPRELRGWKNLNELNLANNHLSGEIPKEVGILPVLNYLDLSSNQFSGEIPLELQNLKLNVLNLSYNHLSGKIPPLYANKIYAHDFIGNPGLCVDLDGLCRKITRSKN
Assay: grating-coupled interferometry

- Kd: ~30 µM
- koff: ~2 s⁻¹
- kon: ~60000 M⁻¹ s⁻¹
B1: INFLORESCENCE DEFICIENT IN ABSCISSION (IDA) peptide, Y-IDA (peptide)
peptide: YVPIPPSA[Hyp]SKRHN
